B1: ADI-34145 IgG (antibody, V domains shown)
VH: EVQLLESGGGLVQPGGSLRLSCAASGFTFSSYAMSWVRQAPGKGLEWVSTISGSGGSTYYADSVKGRFTISRDNSKNTLYLQMNSLRAEDTAVYYCARLGGRRGSGSSYYYYYGMDVWGQGTTVTVSS
VL: not shown
notes: anti-ID IgG
B2: ADI-34134 IgG (antibody, V domains shown)
VH: QVQLVQSGAEVKKPGSSVKVSCKASGGTFSSYAISWVRQAPGQGLEWMGGIIPIFGTANYAQKFQGRVTITADESTSTAYMELSSLRSEDTAVYYCARGAPNYYGSGGYDDGWFDPWGQGTLVTVSS
VL: EIVLTQSPGTLSLSPGERATLSCRASQSVSSDYLAWYQQKPGQAPRLLIYGASSRATGIPDRFSGSGSGTDFTLTISRLEPEDFAVYYCQQFGRVPTFGGGTKVEIK

Key:
ADI-26906 anti-CD3 bsIgG = molecular target: T1, ADI-26906 anti-CD3 bsIgG; experiment: BLI; tip anti-CD3 bsIgG, solution ADI-34145 IgG
T1 construct: anti-HER2 IgG with one Fab arm replaced by the anti-CD3 scFv (printed 'Vx-VH', read as VL-VH); S354C and Y349C mutations; also called anti-CD3 bsIgG (ADI-26906 scFv); not shown: scFv linker; anti-HER2 Fab arm (heavy and light chain); hinge and Fc with S354C/Y349C
Procedure: (§1) ForteBio affinity measurements were performed generally as previously described (Estep et al., MAbs. 2013 5(2):270-8). Briefly, ForteBio affinity measurements were performed by loading antibody IgG or Fabs on-line onto AHC sensors. Sensors were equilibrated off-line in assay buffer for 30 minutes and then monitored on-line for 60 seconds for baseline establishment. For avid binding measurement, sensors with loaded antibodies were exposed to IgG or Fab solutions for 3 minutes, afterwards they were transferred to assay buffer for 3 minutes for off-rate measurement. Kinetics data were fit using a 1:1 binding model in the data analysis software provided by ForteBio to obtain equilibrium dissociation constant (KD=koff/kₒₙ) values. In each column, tip-immobilized antibodies are listed first and solution antibodies second.
Additional analysis was conducted using bispecific antibody formats incorporating anti-CD3 antibody variable domains. Bispecific antibodies were prepared using standard IgG formats (bsIgG) with replacement of Fab arms with anti-CD3 scFvs in Vx-VH orientation and with S354C and Y349C mutations for disulfide stabilization. Antibodies used for Fab arm replacement were anti-HER2 IgG antibodies, with one Fab arm from each replaced by a scFv corresponding to a different anti-CD3 antibody. […] In each column, tip-immobilized antibodies are listed first and solution antibodies second. Anti-CD3 antibodies associated with incorporated scFvs are listed by antibody number.

ADI-26928 IgG = molecular target: T2, ADI-26928 IgG; experiment: BLI; tip ADI-34134 IgG, solution anti-CD3 IgG
T2 construct: anti-CD3 IgG
Procedure: as §1
(§2) In each column, tip-immobilized antibodies are listed first and solution antibodies second.

ADI-22523 IgG = molecular target: T3, ADI-22523 IgG; experiment: BLI; tip ADI-34134 IgG, solution anti-CD3 IgG
T3 construct: anti-CD3 IgG
Procedure: as §1, §2

ADI-26921 IgG = molecular target: T4, ADI-26921 IgG; experiment: BLI; tip ADI-34134 IgG, solution anti-CD3 IgG
T4 construct: anti-CD3 IgG
Procedure: as §1, §2

CTL-19613 IgG = experiment: BLI; tip ADI-34134 IgG, solution anti-CD3 IgG
Procedure: as §1, §2

ADI-26927 IgG = molecular target: T5, ADI-26927 IgG; experiment: BLI; tip ADI-34134 IgG, solution anti-CD3 IgG
T5 construct: anti-CD3 IgG
Procedure: as §1, §2

ADI-26954 IgG = molecular target: T6, ADI-26954 IgG; experiment: BLI; tip ADI-34134 IgG, solution anti-CD3 IgG
T6 construct: anti-CD3 IgG
Procedure: as §1, §2

ADI-26941 IgG = molecular target: T7, ADI-26941 IgG; experiment: BLI; tip ADI-34134 IgG, solution anti-CD3 IgG
T7 construct: anti-CD3 IgG
Procedure: as §1, §2

ADI-74965 = molecular target: T8, ADI-74965; experiment: SPR Carterra avidity, CHO anti-ID; CHO-produced ADI-34134 (Table 10C)
T8 construct: pH-dependent anti-CD3 antibody made in CHO cells
Procedure: (§3) Kinetic analysis was conducted at 25° C. in an HBSTE running buffer system (Carterra Cat #3630) using a Carterra LSA (Carterra USA, Salt Lake City, UT). The sample compartment was maintained at 20° C. for the duration of each experiment.
(§4) For antibody capture experiments, a goat anti-human Fc antibody (Jackson ImmunoResearch) was covalently coupled to an HC30M sensor chip surface via standard amine coupling (1:1 EDC:NHS) and then blocked with ethanolamine (1.0 M, pH 8.5). Covalent coupling steps were performed in 25 mM MES buffer (Carterra, Cat #3625) plus 0.05% Tween20. The anti-CD3 antibodies (100 nM in running buffer) were flowed over discrete regions of interest on the chip surface for 5 minutes. […] Dissociation of the anti-idiotype antibodies was monitored for 300s. Several blank buffer samples were injected over the entire chip surface at the start of each non-regenerative kinetic cycle. The preceding blank buffer injection was used for blank surface subtraction. At the end of each non-regenerative kinetic cycle, all surfaces were regenerated via two 30s injections of 10 mM glycine, pH 1.7.
(§5) For data processing and fitting, sensorgrams were double reference subtracted with a baseline drift correction of 4 RU. Sensorgrams were y-aligned and baseline corrected, filtered and cropped to include only the association and dissociation steps. […]

ADI-48650 = molecular target: T9, ADI-48650; experiment: as above
T9 construct: pH-dependent anti-CD3 antibody made in CHO cells
Procedure: as §3, §4, §5

ADI-26916 Fab = molecular target: T10, ADI-26916 Fab; experiment: BLI; tip ADI-34134 IgG, solution anti-CD3 Fab
T10 construct: anti-CD3 Fab by papain digestion of the IgG
Procedure: as §1
(§6) CTL-19613 is an IgG1 antibody prepared with anti-CD3 variable domains corresponding with those of clone 12C described in United States Publication Number US 2010/0183615 (e.g., see paragraphs 469-479 and FIG. 25 thereof), which also make up the CD3 binding domain of the bispecific antibody pasotuxizumab. […] In each column, tip-immobilized antibodies are listed first and solution antibodies second.

ADI-26906 Fab = molecular target: T11, ADI-26906 Fab; experiment: BLI; tip ADI-34134 IgG, solution anti-CD3 Fab
T11 construct: anti-CD3 Fab by papain digestion of the IgG
Procedure: as §1, §6

ADI-26920 Fab = molecular target: T12, ADI-26920 Fab; experiment: BLI; tip ADI-34134 IgG, solution anti-CD3 Fab
T12 construct: anti-CD3 Fab by papain digestion of the IgG
Procedure: as §1, §6

ADI-26928 Fab = molecular target: T13, ADI-26928 Fab; experiment: BLI; tip ADI-34134 IgG, solution anti-CD3 Fab
T13 construct: anti-CD3 Fab by papain digestion of the IgG
Procedure: as §1, §6

CTL-19613 Fab = molecular target: T14, CTL-19613 Fab; experiment: BLI; tip ADI-34134 IgG, solution anti-CD3 Fab
T14 construct: anti-CD3 Fab by papain digestion of the IgG1
Procedure: as §1, §6

ADI-26913 Fab = molecular target: T15, ADI-26913 Fab; experiment: BLI; tip ADI-34134 IgG, solution anti-CD3 Fab
T15 construct: anti-CD3 Fab by papain digestion of the IgG
Procedure: as §1, §6

ADI-26927 Fab = molecular target: T16, ADI-26927 Fab; experiment: BLI; tip ADI-34134 IgG, solution anti-CD3 Fab
T16 construct: anti-CD3 Fab by papain digestion of the IgG
Procedure: as §1, §6

ADI-22523 Fab = molecular target: T17, ADI-22523 Fab; experiment: BLI; tip ADI-34134 IgG, solution anti-CD3 Fab
T17 construct: anti-CD3 Fab by papain digestion of the IgG
Procedure: as §1, §6

ADI-26941 Fab = molecular target: T18, ADI-26941 Fab; experiment: BLI; tip ADI-34134 IgG, solution anti-CD3 Fab
T18 construct: anti-CD3 Fab by papain digestion of the IgG
Procedure: as §1, §6

ADI-26921 Fab = molecular target: T19, ADI-26921 Fab; experiment: BLI; tip ADI-34134 IgG, solution anti-CD3 Fab
T19 construct: anti-CD3 Fab by papain digestion of the IgG
Procedure: as §1, §6

T3 sequence (VH, as listed by the source limits assumed, chain 1 of 2): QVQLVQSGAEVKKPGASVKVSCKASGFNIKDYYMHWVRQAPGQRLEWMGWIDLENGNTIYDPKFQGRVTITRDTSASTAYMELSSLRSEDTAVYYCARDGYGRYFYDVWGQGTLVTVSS
T3 sequence (VL, as listed by the source limits assumed, chain 2 of 2): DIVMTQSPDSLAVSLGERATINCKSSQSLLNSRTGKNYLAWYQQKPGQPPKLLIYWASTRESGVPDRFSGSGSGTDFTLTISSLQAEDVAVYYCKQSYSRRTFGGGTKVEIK
T1 sequence (VH, as listed by the source limits assumed, chain 1 of 2): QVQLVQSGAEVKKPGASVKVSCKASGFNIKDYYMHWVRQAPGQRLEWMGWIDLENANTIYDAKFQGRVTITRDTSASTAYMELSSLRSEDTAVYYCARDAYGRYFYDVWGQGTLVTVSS
T1 sequence (VL, as listed by the source limits assumed, chain 2 of 2): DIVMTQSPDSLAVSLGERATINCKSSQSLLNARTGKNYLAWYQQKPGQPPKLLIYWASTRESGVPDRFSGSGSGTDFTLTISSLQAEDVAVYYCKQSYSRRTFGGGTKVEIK
T10 sequence (VH, as listed by the source, chain 1 of 2): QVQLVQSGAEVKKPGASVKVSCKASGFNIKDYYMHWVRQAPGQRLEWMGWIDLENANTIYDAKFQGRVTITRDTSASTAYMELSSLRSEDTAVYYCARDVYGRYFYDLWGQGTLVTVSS
T18 sequence (VH, as listed by the source limits assumed, chain 1 of 2): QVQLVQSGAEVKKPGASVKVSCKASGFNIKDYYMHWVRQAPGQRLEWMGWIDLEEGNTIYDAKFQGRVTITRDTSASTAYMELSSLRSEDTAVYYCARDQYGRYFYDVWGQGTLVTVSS
T18 sequence (VL, as listed by the source limits assumed, chain 2 of 2): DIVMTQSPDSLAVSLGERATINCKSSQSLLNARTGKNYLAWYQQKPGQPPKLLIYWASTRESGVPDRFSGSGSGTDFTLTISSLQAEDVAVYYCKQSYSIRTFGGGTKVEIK
T2 sequence (VH, as listed by the source limits assumed, chain 1 of 2): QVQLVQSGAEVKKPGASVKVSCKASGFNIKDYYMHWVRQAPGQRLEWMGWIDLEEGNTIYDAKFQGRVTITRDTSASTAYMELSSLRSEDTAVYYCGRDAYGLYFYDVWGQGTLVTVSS
T2 sequence (VL, as listed by the source limits assumed, chain 2 of 2): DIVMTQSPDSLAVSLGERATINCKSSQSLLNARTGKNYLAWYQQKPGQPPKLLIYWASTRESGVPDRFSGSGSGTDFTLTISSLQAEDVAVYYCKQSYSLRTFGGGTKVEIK
T6 sequence (VH, as listed by the source limits assumed, chain 1 of 2): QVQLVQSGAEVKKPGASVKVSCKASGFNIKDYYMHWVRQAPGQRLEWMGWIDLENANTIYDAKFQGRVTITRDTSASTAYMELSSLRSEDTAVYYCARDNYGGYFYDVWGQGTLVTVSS
T6 sequence (VL, as listed by the source limits assumed, chain 2 of 2): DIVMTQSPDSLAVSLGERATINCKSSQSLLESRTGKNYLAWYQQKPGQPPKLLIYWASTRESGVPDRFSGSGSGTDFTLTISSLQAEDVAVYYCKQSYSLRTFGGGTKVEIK
T15 sequence (VH, as listed by the source limits assumed, chain 1 of 2): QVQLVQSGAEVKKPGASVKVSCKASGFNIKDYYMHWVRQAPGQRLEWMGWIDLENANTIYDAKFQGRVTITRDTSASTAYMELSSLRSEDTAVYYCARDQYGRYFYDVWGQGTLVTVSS
T8 sequence (VH, as listed by the source, chain 1 of 2): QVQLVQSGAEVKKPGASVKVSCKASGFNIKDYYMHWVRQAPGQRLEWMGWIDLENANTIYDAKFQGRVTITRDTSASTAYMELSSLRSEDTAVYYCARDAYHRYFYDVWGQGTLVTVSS
T8 sequence (VL, as listed by the source, chain 2 of 2): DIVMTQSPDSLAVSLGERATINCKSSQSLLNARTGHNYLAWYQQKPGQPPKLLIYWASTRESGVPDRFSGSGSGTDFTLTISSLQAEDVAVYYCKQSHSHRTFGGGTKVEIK
T9 sequence (VH, as listed by the source, chain 1 of 2): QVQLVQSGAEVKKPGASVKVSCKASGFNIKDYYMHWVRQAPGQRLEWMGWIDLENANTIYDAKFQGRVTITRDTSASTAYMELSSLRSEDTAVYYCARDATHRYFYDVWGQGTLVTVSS
T9 sequence (VL, as listed by the source, chain 2 of 2): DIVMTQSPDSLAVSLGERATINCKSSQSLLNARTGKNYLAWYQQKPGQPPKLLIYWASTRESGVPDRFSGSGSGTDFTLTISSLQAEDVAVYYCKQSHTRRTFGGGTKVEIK
T12 sequence (VH, as listed by the source limits assumed, chain 1 of 2): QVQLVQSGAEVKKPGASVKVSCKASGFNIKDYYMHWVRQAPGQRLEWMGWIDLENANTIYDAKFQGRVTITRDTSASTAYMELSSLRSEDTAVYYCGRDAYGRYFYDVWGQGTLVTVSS
T5 sequence (VH, as listed by the source limits assumed, chain 1 of 2): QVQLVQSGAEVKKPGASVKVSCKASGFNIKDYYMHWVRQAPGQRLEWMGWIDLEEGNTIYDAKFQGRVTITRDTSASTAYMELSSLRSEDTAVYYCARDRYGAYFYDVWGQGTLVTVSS
T19 sequence (VH, as listed by the source limits assumed, chain 1 of 2): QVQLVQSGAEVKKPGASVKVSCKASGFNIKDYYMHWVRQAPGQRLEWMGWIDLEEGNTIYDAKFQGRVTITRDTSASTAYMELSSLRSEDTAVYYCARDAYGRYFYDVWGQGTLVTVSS

Binder	Kd (ADI-26906 anti-CD3 bsIgG)	Kd (ADI-26928 IgG)	Kd (ADI-22523 IgG)	Kd (ADI-26921 IgG)	Kd (CTL-19613 IgG)	Kd (ADI-26927 IgG)	Kd (ADI-26954 IgG)	Kd (ADI-26941 IgG)	binding result (ADI-74965)	binding result (ADI-48650)	Kd (ADI-26916 Fab)	Kd (ADI-26906 Fab)	Kd (ADI-26920 Fab)	Kd (ADI-26928 Fab)	binding result (CTL-19613 Fab)	Kd (ADI-26913 Fab)	Kd (ADI-26927 Fab)	Kd (ADI-22523 Fab)	Kd (ADI-26941 Fab)	Kd (ADI-26921 Fab)
B1	13.4 nM																			
B2		0.46 nM	0.46 nM	0.85 nM	9.21 nM	0.45 nM	1.04 nM	1.13 nM	binds	binds	110 nM	36 nM	29.8 nM	182 nM	no binding	86.5 nM	25.6 nM	4.46 nM	112 nM	92.7 nM
